This passage reports BLI response of the competing antibody and Kd results from US20260116963A1.

Experiment [1] deals with HIS-tagged human IL-13 (human) (UniProt P35225). Briefly: BLI in-tandem epitope binning (Octet RH96): HIS-tagged human IL-13 on anti-penta-HIS biosensors, first exposed to 200 nM isotype-hIgG1-YTE as saturating antibody, then 200 nM isotype-hIgG1-YTE as competing antibody; shaded cell (non-binding, <=0.1 nm).
In experiment [2] the target is HIS-tagged human FcRn (human) (UniProt P55899). Briefly: SPR (Biacore 8K+), antibody captured on anti-human Fab CM4 chip, HIS-tagged human FcRn 9.8-5000 nM as analyte, pH 6.0, 25 C, steady-state fit.
HIS-tagged human FcRn (human), sequence (P55899 24-297 limits assumed, chain 1 of 2): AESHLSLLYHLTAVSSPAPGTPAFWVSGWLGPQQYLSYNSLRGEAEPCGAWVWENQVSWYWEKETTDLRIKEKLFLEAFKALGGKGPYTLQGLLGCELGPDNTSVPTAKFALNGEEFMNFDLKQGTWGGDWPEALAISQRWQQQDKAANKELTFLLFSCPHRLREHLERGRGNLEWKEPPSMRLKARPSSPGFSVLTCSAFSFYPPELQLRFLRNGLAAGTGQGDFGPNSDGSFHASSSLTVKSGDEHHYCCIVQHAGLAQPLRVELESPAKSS
HIS-tagged human FcRn (human), sequence (chain, as listed by the source limits assumed, chain 2 of 2): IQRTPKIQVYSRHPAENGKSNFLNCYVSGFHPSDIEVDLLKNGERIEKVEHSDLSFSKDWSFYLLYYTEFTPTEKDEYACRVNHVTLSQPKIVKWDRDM
In experiment [3] the target is HIS-tagged human IL-13 (human) (UniProt P35225). The experiment can be described thus: BLI in-tandem epitope binning (Octet RH96): HIS-tagged human IL-13 on anti-penta-HIS biosensors, saturated with 200 nM Ref1, then 200 nM isotype-hIgG1-YTE as competing antibody; shaded cell (non-binding, <=0.1 nm).
For experiment [4] the target is unchanged. Briefly: BLI in-tandem epitope binning (Octet RH96): HIS-tagged human IL-13 on anti-penta-HIS biosensors, saturated with 200 nM tralokinumab-hIgG1-YTE, then 200 nM isotype-hIgG1-YTE as competing antibody; shaded cell (non-binding, <=0.1 nm).
For experiment [5] the target is unchanged. Briefly: BLI in-tandem epitope binning (Octet RH96): HIS-tagged human IL-13 on anti-penta-HIS biosensors, saturated with 200 nM AbG, then 200 nM isotype-hIgG1-YTE as competing antibody; shaded cell (non-binding, <=0.1 nm).

pKd: −log10 of the molar value.

HIS-tagged human IL-13 (human), sequence (P35225 other isoform, or with tags, fused parts or gaps limits assumed): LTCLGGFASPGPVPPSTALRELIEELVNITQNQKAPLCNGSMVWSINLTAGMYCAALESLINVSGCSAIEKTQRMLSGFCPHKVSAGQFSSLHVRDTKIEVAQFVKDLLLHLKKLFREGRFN

On to isotype-hIgG1-YTE (antibody), for which the BLI response of the competing antibody was 0 nm in experiment [1], -0.036 nm in experiment [3], -0.023 nm in experiment [4] and -0.018 nm in experiment [5]. For the same substance, in experiment [2], the pKd is 6.81.

In experiment [2], isotype-hIgG1 (antibody) had a negative logarithm of the Kd (pKd) of 5.93.

In experiment [2], isotype-hIgG1-YTE-TM (antibody) gave a pKd of 6.81. This pKd lies 0.88 log units higher than the previous one.

isotype-hIgG4 (antibody) gave a pKd in experiment [2] of 5.92. Compared with the last substance, the pKd is 0.89 log units lower.
